The assay addresses endothelial protein C receptor (EPCR), residues 16 to 210, biotinylated on the BAP tag (human) (UniProt Q9UNN8). The assay can be described thus: SPR.

Sequence of endothelial protein C receptor (EPCR), residues 16 to 210, biotinylated on the BAP tag (human) (Q9UNN8 16-210): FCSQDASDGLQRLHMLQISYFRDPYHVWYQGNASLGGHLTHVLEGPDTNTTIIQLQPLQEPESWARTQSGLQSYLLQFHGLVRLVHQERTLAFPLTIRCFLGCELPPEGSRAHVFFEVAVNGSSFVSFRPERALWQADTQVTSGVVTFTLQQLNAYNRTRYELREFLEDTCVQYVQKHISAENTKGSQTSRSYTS

The substance “HB3var03 CIDRα1.4 domain D576A K642A double mutant (domain or fragment)” came in with an equilibrium dissociation constant (Kd) of 220 nM.

These data come from paper doi:10.1101/749432.
